Assay results: patent US20200040103A1 (Genentech, published 2020)

Assays:
[1] = molecular target: human KLK4 (human, UniProt Q9Y5K2 31-254, limits assumed); assay: column 8: KLK4 activity assay, 2 nM KLK4
Protocol: (§1) KLK4 selectivity assay was performed at room temperature in a 384-well plate (black, low-volume round bottom, Corning #4514) with a final reaction volume of 15 μL. Inhibitor samples were diluted to 3× final concentration in assay buffer (75 mM Tris, pH 8.0, 150 mM NaCl, 0.01% TWEEN® 20). Reactions lacking inhibitor and reactions lacking enzyme were used as 100% and 0% activity controls, respectively. Inhibitor or control samples (5 μL) were added to the plate followed by 5 μL KLK4 (R&D Systems, 1719-SE, Lot MSY0116011, activated according to R&D systems protocol) in assay buffer at a final concentration of 2 nM. After 30 minutes, 5 μL of Boc-Val-Pro-Arg-AMC (Bachem I-1120, 31.3 mM stock solution in water) in assay buffer was added at a final concentration of 50 μM. […] Reaction rates (expressed as RFU/s) were calculated by linear regression in the range 510-3570 seconds. Reaction rates were normalized to the values of the 0% and 100% activity controls and fit with a 4-parameter equation to calculate IC₅₀ values. In the case of bivalent inhibitors, the raw IC₅₀ value was multiplied by two.
In FIG. 8, the ability of Spink9.SRE.Fc, mAb1108 or 12 selected anti-KLK5 antibodies to inhibit the proteolysis of the substrate, Boc-VPR-AMC, by human KLK4 was assessed using an enzymatic assay. […] The results were expressed as a percentage of maximum KLK4 activity (% control).

[2] = molecular target: human KLK7 (human, UniProt P49862 30-253, limits assumed); assay: column 6: KLK7 activity assay, 5 nM KLK7
Protocol: KLK7 selectivity assay was performed at room temperature in a 384-well plate (black, low-volume round bottom, Corning #4514) with a final reaction volume of 15 μL. Inhibitor samples were diluted to 3× final concentration in assay buffer (75 mM Tris, pH 8.0, 150 mM NaCl, 0.01% TWEEN® 20). Reactions lacking inhibitor and reactions lacking enzyme were used as 100% and 0% activity controls, respectively. Inhibitor or control samples (5 μL) were added to the plate followed by 5 μL KLK7 (Genentech) in assay buffer at a final concentration of 5 nM. After 30 min, 5 μL of Suc-Leu-Leu-Val-Tyr-AMC (Bachem I-1395, 25 mM stock solution in water) in assay buffer was added at a final concentration of 100 μM. […] Reaction rates (expressed as RFU/s) were calculated by linear regression in the range 2040-4488 seconds. Reaction rates were normalized to the values of the 0% and 100% activity controls and fit with a 4-parameter equation to calculate IC₅₀ values. […]

[3] = molecular target: T1, trypsin isolated from bovine pancreas (bovine, UniProt P00760 24-246); assay: column 9: trypsin activity assay, 0.25 nM trypsin
T1 construct: also called bovine trypsin
Protocol: 0.25 nM trypsin isolated from bovine pancreas and 0.19-100 nM anti-KLK5 inhibitors were pre-incubated for 30 minutes prior to addition of 50 μM Boc-VPR-AMC. […] The results for the KLK5 inhibitors are depicted as follows: FIG. 9A: Spink9.SRE.Fc, FIG. 9B: mAb1108, FIG. 9C: 3-3F5, FIG. 9D: 10C8, FIG. 9E: 9B6, FIG. 9F: 9F2, FIG. 9G: 9H3, FIG. 9H: 9H5, FIG. 9I: 8B7, FIG. 9J: 2B11, FIG. 9K: 8F5, FIG. 9L: 10C5, FIG. 9M: 10H3 and FIG. 9N: 2-3F4.
as §1, with “Trypsin selectivity” for “KLK4 selectivity”, “μL trypsin (Sigma Aldrich T8003,” for “μL KLK4 (R&D Systems, 1719-SE,”, “Lot SLBM2321V, 42.0 μM stock solution in 1 mM HCl)” for “Lot MSY0116011, activated according to R&D systems protocol)”, “of 0.25” for “of 2”, “range 204-3570” for “range 510-3570”

[4] = molecular target: human KLK1 (human, UniProt P06870 25-262, limits assumed); assay: column 7: KLK1 activity assay, 3 nM KLK1
human KLK1, sequence (P06870 25-262 limits assumed): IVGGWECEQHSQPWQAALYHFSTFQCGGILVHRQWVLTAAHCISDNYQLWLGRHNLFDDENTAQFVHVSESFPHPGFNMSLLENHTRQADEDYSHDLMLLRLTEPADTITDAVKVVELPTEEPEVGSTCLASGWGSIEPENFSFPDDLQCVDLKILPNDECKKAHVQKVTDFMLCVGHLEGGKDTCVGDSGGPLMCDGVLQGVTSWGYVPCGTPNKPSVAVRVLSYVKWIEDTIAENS

human KLK4, sequence (Q9Y5K2 31-254 limits assumed): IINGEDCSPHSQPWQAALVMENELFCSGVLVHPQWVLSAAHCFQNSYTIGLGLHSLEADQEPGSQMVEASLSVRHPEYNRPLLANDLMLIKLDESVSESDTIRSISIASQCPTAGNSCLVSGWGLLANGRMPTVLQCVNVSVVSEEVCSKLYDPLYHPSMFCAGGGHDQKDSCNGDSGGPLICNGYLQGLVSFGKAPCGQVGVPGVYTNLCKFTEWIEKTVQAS
human KLK7, sequence (P49862 30-253 limits assumed): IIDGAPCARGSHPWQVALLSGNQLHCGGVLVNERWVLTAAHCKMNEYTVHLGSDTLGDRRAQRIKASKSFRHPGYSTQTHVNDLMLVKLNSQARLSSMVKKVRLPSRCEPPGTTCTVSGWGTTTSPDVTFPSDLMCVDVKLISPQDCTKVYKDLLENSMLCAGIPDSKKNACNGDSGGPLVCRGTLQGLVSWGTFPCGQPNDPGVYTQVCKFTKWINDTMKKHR
T1 sequence (P00760 24-246): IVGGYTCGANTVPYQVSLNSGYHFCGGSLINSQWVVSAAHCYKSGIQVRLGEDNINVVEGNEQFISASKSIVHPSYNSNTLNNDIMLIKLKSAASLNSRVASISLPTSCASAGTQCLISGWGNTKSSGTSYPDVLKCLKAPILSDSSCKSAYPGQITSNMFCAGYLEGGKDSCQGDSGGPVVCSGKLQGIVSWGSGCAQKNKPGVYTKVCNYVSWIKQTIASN

IC50 [1] [nM] | IC50 [2] [nM] | IC50 [3] [nM] | IC50 [4] [nM] | Binder
> 100 | > 100 | > 100 | > 100 | 9B6 (antibody, V domains shown) VH: QSVKESEGGLFKPTDNLTLTCTVSGFSLSNYGVTWVRQAPGNGLEYIGFIGSGGSAYYASWAKSRSTITRNTNLNTVTLKMTSLTAADTATYFCARDDVGGGKSLDIWGPGTLVTVSS VL: NIVMTQTPASVEVAVGGTVVIKCQASQNIGDYLSWYQQKPGQRPKLLIYSASTLASGVPSRFKGSGSGTQFTLTISDLECADAATYYCHQDYTSNDVENTFGGGTEVVVK
> 100 | > 100 | > 100 | > 100 | 9H5 (antibody, V domains shown, Rabbit monoclonal; also called Chimeric 9H5; KLK5.9H5 (complex sample)) VH: QSVKESEGGLFKPTDNLTLTCTVSGFSLSSYGVSWVRQAPGNGLEYIGFIGSGGFAYYASWAKSRSTITRNTNLNTVTLKMTSLTAADTATYFCARDDVGGGKSLDIWGPGTVVTVSV VL: NIVMTQTPASVEAAVGGTVTINCQASQSISSYLSWYQQKSGQRPKLLIFSASTLASGVPSRFTGSGSGTQFTLTISDLQCADAATYYCHQDYTSSNVDNTFGGGTEVVVK
> 100 | > 100 | > 100 | > 100 | 9H3 (antibody, V domains shown) VH: QSVKESEGGLFKPTDTLTLTCTVSGFSLSGYGVSWVRQAPGKGLEYIGFIGSGGSAYYASWAKSRSTITRNTNLNTVTLKMTRLTAADTATYFCARDNVGGDMSLDIWGPGTLVTVSS VL: DIVMTQTPASVSEPVGGTVTIKCQASQNINNYLSWYQQKPGQPPKQLIYAASTLASGVPSRFKGSGSGTQFTLTISDLECADAATYYCHQDYTSNNVDNTFGGGTEVVVK
> 100 | > 100 | > 100 | > 100 | 10C8 (antibody, V domains shown) VH: QSVKESEGGLFKPTDNLTLTCTVSGFSLSSYGVSWVRQAPGNGLEYIGFIGSGGFAYYASWAKSRSTITRNTNLNTVTLKMTSLTAADTATYFCARDDVGGGRSLDIWGPGTVVTVSS VL: NIVMTQTPASVEVAMGGTVIIKCQASQSISTYLSWYQQKPGQPPKLLIYSASTLASGVSSRFEGSGSGTQFTLTISGVQCADAATYYCHQDYTSNNVDNTFGGGTEVVVK
> 100 | > 100 | > 100 | > 100 | 9F2 (antibody, V domains shown) VH: QSVKESEGGLFKPTDNLTLTCTVSGFSLSSYGVSWVRQAPGNGLEYIGFIGSGGSPYYASWAKSRSTITRNTNLNTVTLKMTSLTAADTATYFCARDDVGGGKSLDIWGPGTLVTVSS VL: NIVMTQTPASVEVAVGGTVIIKCQASQSISNYLSWYHQKSGQRPRLLIYSASTLASGVPSRFKGSGSGTQFTLTISDLECADAATYYCHQDYTSNSVDNTFGGGTEVVVK
> 100 | > 100 | > 100 | > 100 | 8B7 (antibody, V domains shown) VH: QSVKESEGGLFKPTDNLTLTCTVSGFSLSNYGVTWVRQAPGNGLEYIGFIGSSGSAYYASWAKSRSTITRNTNLNTVTLKMTSLTAADTATYFCARDDVGGGKSLDIWGPGTLVTVSS VL: NIVMTQTPASVEVAVGGTVTIKCQASQSIGSYLSWYQQKPGQPPKLLIYDASNLASGVPSRFKGSGSGTQFTLSISDLECADAATYYCHQDYTSNNVDNTFGGGTEVVIK
> 100 | > 100 | > 100 | > 100 | 2-3F4 (antibody, V domains shown) VH: QSVEESRGGLIKPTDTLTLTCTASGFSLSNYGVSWVRQAPGNGLEYIGFIGYGGSTYYASWAKSRSTITRNTNLNTVTLQMTSLTAADTATYFCARLCGVDCADALDSWGPGTLVTVSS VL: AYYMTQTPASVEVAVGGTVTIKCQASEDIGSYCSWYQQKPGQPPKLLIYDASDLASGVPSRFKGSGSGTDFTLTISGVQCDDAATYYCQQDYTGNNVDNTFGGGSEVVVK
> 100 | > 100 | > 100 | > 100 | 2B11 (antibody, V domains shown) VH: QSVKESEGGLFKPTDTLTLTCTVSGFSLINYGVSWVRQAPGKGLEWIGYIGSAGSTYYATWAKSRATITRNTNLNTVTLKMTSLTAADTATYFCARAAYSAGSADAEDIWGPGTLVTVSS VL: AYYMTQTPASVEAAVGGTVTIKCQASQSISNYVAWYQQKPGQPPKLLIYRASTLASGVSSRFSGSGSGTEFTLTISDLECADAATYYCHQGYSSSNVDNIFGGGTEVVVK
> 100 | > 100 | > 100 | > 100 | 3-3F5 (antibody, V domains shown, Rabbit monoclonal; also called Chimeric 3-3F5) VH: QSVKESEGGLFKPTDTLTLTCTVSGFSLNDYGVSWVRQAPGNGLEWIGAIGSSGVAWYANWAKGRSTITRNTNLNTVTLKMASLTAADTATYFCARDRDYGYRADDATSGMDLWGPGTLVTVSS VL: AYDMTQTPASVEAAVGGTVTIKCQASESIGNALAWYQQKPGQPPKLLIYDASDLASGVPSRFKGSGSGTQFTLTISGVECADAATYYCQQGDSHNNVDNIFGGGTEVVVK
> 100 | > 100 | > 100 | > 100 | 10H3 (antibody, V domains shown, also called KLK5.10H3 (complex sample)) VH: QSVKESEGGLIKPTDTLTLTCTVSGFSLSTFAINWVRQAPGNGLEWIGAIGRGGSAYYASWAKSRSTITKNTNLNTVTLKMTRPTAADTATYFCARENAGSGWGELDIWGPGTLVTVSS VL: AYEMTQTPASVEVAVGGTVTINCQASESISSDLAWYQQKPGQRPKLLIYAASTLASGVPSRFKGSGSGTEFTLSISGVQCADAATYYCQQGYTWNNVDNVFGGGTEVVVK
> 100 | > 100 | > 100 | > 100 | 8F5 (antibody, V domains shown) VH: QSVKESEGGLFKPTDTLTLTCTVSGFSLSSYPISWVRQAPGNGLEWIGYITSEYGVAYYATWAESRSTITRNTNLNTVTLKMTSLTAADTATYFCVRENPTYGYAYDAWGPGTLVTVSS VL: AYDLTQTPASVEAAVGGTVTINCQASESIGNELSWYQQKSGQPPKLLIYQASTLASGVPSRFKGSGSGTDFTLTISDLECADAATYYCAQGFSSSGVENVFGGGTEVVVK
> 100 | > 100 | > 100 | > 100 | 10C5 (antibody, V domains shown, Rabbit monoclonal; also called Chimeric 10C5; KLK5.10C5 (complex sample)) VH: QSLEESGGGLVKPTDTLTLTCTVSGFSLSSYGVTWVRQAPGRGLEWIGYITSNYGVSYYASWAKSRSTITRNTNLNTVTLKMTSLTAADTATYFCARENPDYGYAYDAWGPGTLVTVSV VL: AYDMTQTPASLEAAVGGTVTINCQASESISNELSWYQQKPGQPPDLLIYYASTLASGVPSRFKGSGSGTEFTLTISDLECADAATYYCAQGFGSSGVENVFGGGTEVVVK
